Experimental data taken from paper PMC8223116, “A novel G-quadruplex aptamer-based spike trimeric antigen test for the detection of SARS-CoV-2”.

Target: SARS-CoV-2 spike RBD (SARS-CoV-2, UniProt P0DTC2 319-541)
Assay: ALISA

| Binder | binding result |
| --- | --- |
| TCGTTGGTGGCGGCGTGCCCGGGGCACGGGGACGTCTCGCACGGC (ssDNA) [S13 truncated (45-mer)] | no binding |
| TGGGAGCCTGGGACATAGTGGGGAAAGAGGGGAAGAGTGGGTCT (structured_DNA) [S14 truncated (44-mer)] | no binding |
